Reference: patent US20250320478

Legend:
Assay in all cases: cell_activity
[1] = test system: ZFP6:G:hD3L (synthetic construct); settings: triple combination with ZFP8:G:K and ZFP3:G:D3A; not tested alone
[2] = test system: ZFP8 (Pcsk9 ZFP, KRAB/DNMT3 effector fusions) (synthetic construct); settings: upper end of 1.5-17 range for bi-partite ZFP8 ETRs in Hepa 1-6 Pcsk9tdTomato; tri-partite 2-8 fold; binding inferred from silencing
[3] = test system: ZFP3:G:D3A (synthetic construct); settings: triple combination with ZFP8:G:K and ZFP6:G:hD3L; not tested alone
ZFP3:G:D3A (synthetic construct), sequence (chain, as listed by the source): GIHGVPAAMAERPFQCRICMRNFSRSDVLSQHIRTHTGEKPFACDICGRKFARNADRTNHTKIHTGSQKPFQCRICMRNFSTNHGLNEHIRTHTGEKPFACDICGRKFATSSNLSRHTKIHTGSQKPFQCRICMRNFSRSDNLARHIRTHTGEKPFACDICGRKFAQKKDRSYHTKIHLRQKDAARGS

ZFP6:G:hD3L (synthetic construct), sequence (chain, as listed by the source): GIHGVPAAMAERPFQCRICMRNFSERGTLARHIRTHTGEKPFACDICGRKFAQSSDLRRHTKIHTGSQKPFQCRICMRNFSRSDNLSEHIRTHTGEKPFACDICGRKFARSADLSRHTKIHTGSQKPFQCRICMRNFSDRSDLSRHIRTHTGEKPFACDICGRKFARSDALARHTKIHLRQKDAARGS

Pcsk9 promoter CpG island, ZFP6 target site
activity (fold silencing vs ZFPoff) [1]: 15

Pcsk9 promoter CpG island, ZFP8 target site
activity (fold silencing vs ZFPoff) [2]: 17

Pcsk9 promoter CpG island, ZFP3 target site
activity (fold silencing vs ZFPoff) [3]: 15
